The target in test [1] is T1, DLL3 on cells (SHP-77, NCI-H82, HEK-DLL3, membrane proteome array cells) (human, UniProt Q9NYJ7 27-618).
T1 construct: whole, on cells; also called hDLL3
T1 sequence (looked up): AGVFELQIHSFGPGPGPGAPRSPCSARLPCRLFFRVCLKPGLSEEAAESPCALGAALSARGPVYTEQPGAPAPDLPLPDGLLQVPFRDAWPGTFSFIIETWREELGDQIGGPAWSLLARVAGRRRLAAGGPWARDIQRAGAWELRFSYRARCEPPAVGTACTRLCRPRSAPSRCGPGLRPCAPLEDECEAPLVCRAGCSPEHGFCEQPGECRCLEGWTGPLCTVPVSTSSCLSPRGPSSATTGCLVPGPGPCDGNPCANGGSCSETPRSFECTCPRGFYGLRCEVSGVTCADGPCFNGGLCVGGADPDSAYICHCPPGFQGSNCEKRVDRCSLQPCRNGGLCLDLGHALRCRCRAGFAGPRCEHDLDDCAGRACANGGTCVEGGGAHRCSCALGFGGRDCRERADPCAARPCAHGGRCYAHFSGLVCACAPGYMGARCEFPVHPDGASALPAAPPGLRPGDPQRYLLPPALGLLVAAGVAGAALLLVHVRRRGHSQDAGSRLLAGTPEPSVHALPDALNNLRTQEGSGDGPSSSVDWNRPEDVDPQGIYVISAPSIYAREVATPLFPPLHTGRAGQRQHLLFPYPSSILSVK
As to the kind of experiment: flow cytometry on SHP-77 cells, Geomeans RL1-H.

Test [2] deals with T2, DLL3 EGF1-6(mIgG2aCH2-CH3) (human).
T2 construct: also called hDLL3 EGF domain construct; DLL3 EGF1-6 domain
T2 chain: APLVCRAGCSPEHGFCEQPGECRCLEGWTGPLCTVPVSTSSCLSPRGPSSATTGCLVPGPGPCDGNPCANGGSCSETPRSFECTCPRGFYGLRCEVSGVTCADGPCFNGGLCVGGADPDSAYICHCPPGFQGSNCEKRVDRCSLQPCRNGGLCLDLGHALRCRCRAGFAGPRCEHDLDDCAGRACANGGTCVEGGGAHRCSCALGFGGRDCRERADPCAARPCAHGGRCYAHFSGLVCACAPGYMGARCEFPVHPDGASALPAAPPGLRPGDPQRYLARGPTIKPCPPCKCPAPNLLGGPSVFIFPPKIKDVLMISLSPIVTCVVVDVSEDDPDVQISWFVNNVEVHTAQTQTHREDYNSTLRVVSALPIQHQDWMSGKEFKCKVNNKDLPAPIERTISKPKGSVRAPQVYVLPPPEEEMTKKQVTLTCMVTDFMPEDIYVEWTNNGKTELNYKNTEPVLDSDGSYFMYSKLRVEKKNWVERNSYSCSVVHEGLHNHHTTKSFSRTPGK
As to the kind of experiment: Octet BLI, VHH-Fc captured on AHC sensor, DLL3 EGF1-6-mIgG2a Fc titrated.

The target of test [3] is T1, DLL3 on cells (SHP-77, NCI-H82, …). As to the kind of experiment: flow cytometry on SHP-77 cells, Geomeans RL1-H. This is another data set of the same source. On the technique in general: A flow cytometer gives signals particle by particle.
The next test concerns the target T3, human DLL3 on cells (human, UniProt Q9NYJ7 27-618).
T3 sequence (looked up): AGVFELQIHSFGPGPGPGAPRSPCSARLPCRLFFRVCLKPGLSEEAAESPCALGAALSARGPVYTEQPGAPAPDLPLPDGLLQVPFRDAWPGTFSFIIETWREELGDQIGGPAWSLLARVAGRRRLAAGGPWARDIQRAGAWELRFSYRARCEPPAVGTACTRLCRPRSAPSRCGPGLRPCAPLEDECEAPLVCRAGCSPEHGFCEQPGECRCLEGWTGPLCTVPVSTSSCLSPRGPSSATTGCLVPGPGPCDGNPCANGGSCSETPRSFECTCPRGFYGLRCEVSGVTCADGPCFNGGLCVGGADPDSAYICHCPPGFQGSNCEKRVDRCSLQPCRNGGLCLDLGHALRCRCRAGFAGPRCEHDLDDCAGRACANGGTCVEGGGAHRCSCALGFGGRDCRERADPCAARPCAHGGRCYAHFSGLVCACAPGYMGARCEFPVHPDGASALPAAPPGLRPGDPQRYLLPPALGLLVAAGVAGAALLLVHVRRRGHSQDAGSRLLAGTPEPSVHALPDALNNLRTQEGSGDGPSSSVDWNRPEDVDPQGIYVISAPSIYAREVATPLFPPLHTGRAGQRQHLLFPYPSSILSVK
In words: cell-based or functional assay.

Test [4] concerns the target T4, hDLL3 EGF1-6 (aa 216-492) fused to mIgG2a CH2-CH3 Fc (human).
T4 construct: also called DLL3 EGF1-6(mIgG2aCH2-CH3); hDLL3 EGF domain construct
T4 chain: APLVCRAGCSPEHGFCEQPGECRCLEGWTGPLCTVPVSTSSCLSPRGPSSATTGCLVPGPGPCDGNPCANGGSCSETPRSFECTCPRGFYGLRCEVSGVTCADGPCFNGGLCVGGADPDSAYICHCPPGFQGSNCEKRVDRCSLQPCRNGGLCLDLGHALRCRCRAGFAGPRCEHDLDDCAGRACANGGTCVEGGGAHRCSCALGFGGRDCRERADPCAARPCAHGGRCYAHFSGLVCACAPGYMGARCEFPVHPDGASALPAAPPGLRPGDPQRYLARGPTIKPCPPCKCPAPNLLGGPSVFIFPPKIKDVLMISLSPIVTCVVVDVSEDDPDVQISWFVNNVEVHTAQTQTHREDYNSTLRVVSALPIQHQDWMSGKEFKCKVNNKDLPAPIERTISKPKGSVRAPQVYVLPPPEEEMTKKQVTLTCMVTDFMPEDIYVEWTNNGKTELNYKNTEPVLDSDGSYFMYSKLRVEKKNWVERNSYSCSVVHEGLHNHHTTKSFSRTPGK
In words: ELISA on coated hDLL3 EGF1-6-mIgG2a Fc (2 ug/ml), anti-hIgG-Fc-HRP, A450. A general note: ELISA stands for enzyme-linked immunosorbent assay.

Another test has as its target T5, DLL3 ECD (human, UniProt Q9NYJ7).
T5 construct: recombinant ECD aa 27-492; also called full length DLL3 ECD (aa 27-492, Cat #ab255797, Abcam); human DLL3.HIS
T5 sequence (antigen, looked up): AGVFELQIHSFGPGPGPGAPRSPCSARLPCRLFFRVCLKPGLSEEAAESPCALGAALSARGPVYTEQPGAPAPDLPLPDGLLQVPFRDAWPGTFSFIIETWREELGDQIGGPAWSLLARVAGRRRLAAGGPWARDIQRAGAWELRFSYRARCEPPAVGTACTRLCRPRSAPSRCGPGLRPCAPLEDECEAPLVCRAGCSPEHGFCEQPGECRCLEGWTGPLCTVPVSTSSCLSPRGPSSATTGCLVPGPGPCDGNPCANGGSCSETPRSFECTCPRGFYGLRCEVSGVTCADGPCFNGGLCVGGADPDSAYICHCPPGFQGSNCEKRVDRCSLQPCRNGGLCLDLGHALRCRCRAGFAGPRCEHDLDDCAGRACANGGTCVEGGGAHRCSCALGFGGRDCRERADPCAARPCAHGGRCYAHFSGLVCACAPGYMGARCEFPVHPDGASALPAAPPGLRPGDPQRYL
As to the kind of experiment: ELISA on coated full length DLL3 ECD (2 ug/ml), anti-hIgG-Fc-HRP, A450.

The next test deals with T6, mouse DLL3 (mouse, UniProt O88516 25-477, limits assumed).
T6 construct: also called mDLL3; murine DLL3
T6 sequence (looked up): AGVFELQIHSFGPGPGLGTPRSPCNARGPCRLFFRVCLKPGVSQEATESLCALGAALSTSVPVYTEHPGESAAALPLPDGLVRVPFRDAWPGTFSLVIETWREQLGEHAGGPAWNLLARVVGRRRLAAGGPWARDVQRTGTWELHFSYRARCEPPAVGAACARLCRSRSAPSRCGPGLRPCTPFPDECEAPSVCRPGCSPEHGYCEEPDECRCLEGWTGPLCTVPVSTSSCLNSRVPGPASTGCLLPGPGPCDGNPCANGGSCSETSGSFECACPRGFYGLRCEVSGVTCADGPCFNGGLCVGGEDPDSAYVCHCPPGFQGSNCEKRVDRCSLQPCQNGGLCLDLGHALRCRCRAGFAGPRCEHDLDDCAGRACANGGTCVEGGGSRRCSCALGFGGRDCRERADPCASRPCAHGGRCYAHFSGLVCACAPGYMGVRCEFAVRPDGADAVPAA
In words: ELISA.

Like-named read-outs stand apart in the source and are kept apart here.

B1: 107_zu2 (Fc fusion)
chain: QVQLVESGGGLVQPGGSLRLSCAASDRTFSSYAVGWFRQAPGQGLEFVAAISWNGGRTLYTDSVTGRFTISRDNSKNTLYLQMNSLRAEDTAVYYCAARPAAPTRRLEYDYWGQGTLVTVSSEPKSSDKTHTCPPCPAPEAEGAPSVFLFPPKPKDTLMISRTPEVTCVVVDVSHEDPEVKFNWYVDGVEVHNAKTKPREEQYNSTYRVVSVLTVLHQDWLNGKEYKCKVSNKALPSSIEKTISKAKGQPREPQVYTLPPSREEMTKNQVSLTCLVKGFYPSDIAVEWESNGQPENNYKTTPPVLDSDGSFFLYSKLTVDKSRWQQGNVFSCSVMHEALHNQYTQKSLSLSPG
notes: Humanized VHH-Fc
As for B1, the concentration giving a half-maximal response (EC50 (read off the curve)) in test [1] is approximately 0.2 nM. In test [2], this molecule returned a dissociation constant (Kd) of 5.04 nM, an off-rate constant (koff) of 0.000513 s⁻¹ and an on-rate constant (kon) of 102000 M⁻¹ s⁻¹. Besides, the “EC50 (read off the curve)” value in test [3] was approximately 0.2 nM.

B2: Clone 126 VHH-Fc with H435Q Fc (Fc fusion)
chain: QVQLVESGGGMVQPGGSLRLSCAASGITFSMYSMSWYRQPPGKQRELVAATTTFGSTNYADSVKGRFTISRDNAKNTVYLQMNSLKPEDTAVYLCNARFTSEEYWGQGTQVTVSSAPELLGGPSVFLFPPKPKDTLMISRTPEVTCVVVDVSHEDPEVKFNWYVDGVEVHNAKTKPREEQYNSTYRVVSVLTVLHQDWLNGKEYKCKVSNKALPAPIEKTISKAKGQPREPQVYTLPPSREEMTKNQVSLTCLVKGFYPSDIAVEWESNGQPENNYKTTPPVLDSDGSFFLYSKLTVDKSRWQQGNVFSCSVMHEALHNQYTQKSLSLSPG
B2: the “H435Q-Fc SHP-77 Internalization FOI” value with human DLL3 on cells worked out at 1.19 FOI.

B3: 126 (parental VHHFc of Example 41) (Fc fusion)
chain: QVQLVESGGGMVQPGGSLRLSCAASGITFSMYSMSWYRQPPGKQRELVAATTTFGSTNYADSVKGRFTISRDNAKNTVYLQMNSLKPEDTAVYLCNARFTSEEYWGQGTQVTVSS
notes: Parental VHHFc; not shown: hinge and Fc
On to B3, for which the binding result in test [4] was “no binding (tested: 100 nM)”.

B4: Sc16.23 (antibody, V domains shown)
VH: QVTLKESGPGILQPSQTLSLTCSFSGFSLSTSNTGIGWIRQPSGTGLEWLAHIWWNDDKYYNPSLKSRLTISKETSNNQVFLKITNVDTADTASYFCVQIGRDYSNYAWYFDVWGAGTTVTVSS
VL: QIVLTQSPAIMSASPGEKVTLTCSASSSVSSRYLYWYQQKPGSSPKLWIYSTSNLASGVPARFSGSGSGTSYSLIISSMEAEDAASYFCHQWSNYPLTFGAGTKLELK
On to B4, for which, in the test with DLL3 ECD, the “EC50 (read off the curve)” value was approximately 0.8 nM.

B5: 126_zu2 (Fc fusion)
chain: QVQLVESGGGLVQPGGSLRLSCAASGITFSMYSMSWFRQAPGQGLELVAATTTFGSTNYADSVKGRFTISRDNSKNTLYLQMNSLRAEDTAVYYCAARFTSEEYWGQGTLVTVSSEPKSSDKTHTCPPCPAPEAEGAPSVFLFPPKPKDTLMISRTPEVTCVVVDVSHEDPEVKFNWYVDGVEVHNAKTKPREEQYNSTYRVVSVLTVLHQDWLNGKEYKCKVSNKALPSSIEKTISKAKGQPREPQVYTLPPSREEMTKNQVSLTCLVKGFYPSDIAVEWESNGQPENNYKTTPPVLDSDGSFFLYSKLTVDKSRWQQGNVFSCSVMHEALHNQYTQKSLSLSPG
notes: Humanized VHH-Fc
Regarding B5, the half-maximal effective concentration (EC50 (read off the curve)) in test [1] is approximately 0.1 nM; in test [3] it was approximately 0.07 nM. In addition, the binding result (in test [2]; with mouse DLL3) was “no binding” each time.

What is called EC50 (read off the curve) is the concentration giving half of the maximal effect. Read a high EC50 (read off the curve) as a less potent agent. One may read the Kd as the equilibrium constant for the complex coming apart. For orientation: koff means a measure of how fast the partners let go of each other. Read a high koff as fast dissociation. The kon is the second-order rate constant of association.

(Values after patent publication US20250051476A1 (ABDERA THERAPEUTICS, published 2025).)
